The record followed here is publication PMC6994090.

This data set deals with alpha-thrombin (human, UniProt P00734;P00734 328-363;364-622). Briefly: SPR. (SPR reads the build-up and loss of mass on a sensor chip optically.)

B1: Tbn#6 (structured_RNA)
RNA: UGAGGUGUUUGGGGUACUACUGGUAAAGGAUUUUCAUCUA
modifications: RNA (U for T); 2'-F C and U, 2'-OH A and G
By Kd is commonly meant the constant that tells how readily two partners part at equilibrium. A low value points to a tighter complex. Regarding B1, the Kd was 1.7 nM.

B2: Tbn#3 (structured_RNA)
RNA: CCUUUGGUUCGGAUAAUUAUUAAGUAUUGUCUUCAUUCA
modifications: RNA (U for T); 2'-F C and U, 2'-OH A and G
Molecule B2 gave a Kd of 1.4 nM.
